Laboratory results published in patent publication US20220242962A1 (APTEVO RESEARCH AND DEVELOPMENT, published 2022).
Where two headings read alike, the source gives them in different places.

What was measured:
Fc gamma receptor RI = molecular target: T1, Fc gamma receptor RI (human, UniProt P12314 16-288); assay: SPR, construct immobilized, receptor injected at 100 nM
T1 construct: also called FcγRI
Method: Fcγ receptor binding to bispecific proteins was measured by Surface Plasmon Resonance on a Biacore 8K instrument at room temperature. Bispecific proteins with modified Fc regions to reduce binding to Fcγ receptors were directly immobilized on the surface of a CM5 sensor chip to a surface density of 4000 RU. A bispecific ADAPTIR™ protein with a wild type Fc was similarly immobilized to the surface as a positive control and used as a comparator to evaluate the reduction in binding resulting from changes incorporated into the Fc region amino acid sequence. Fcγ receptors (purchased from R&D Systems) were diluted to either 100 nM (FcγRI) or 2 μM (all other Fcγ receptors) in HBS-EP+ buffer before injecting over the surface of the prepared sensor chip at 30 μL/min for 60 seconds. Maximum RU values during association phase of each injection were used to compare the extent of binding of the modified Fc to wild type value and are reported in Table 17 below.

Full-length Cyno 4-1BB [1] = molecular target: T2, Full-length Cyno 4-1BB (cynomolgus monkey, UniProt Q07011 24-255 (human entry)); assay: flow cytometry on Jurkat cells transfected with cynomolgus 4-1BB, goat anti-human Fc secondary antibody, MFI (Mean)
T2 construct: on Jurkat or CHO cells; also called FOB006; cynomolgus 4-1BB
T2 chain: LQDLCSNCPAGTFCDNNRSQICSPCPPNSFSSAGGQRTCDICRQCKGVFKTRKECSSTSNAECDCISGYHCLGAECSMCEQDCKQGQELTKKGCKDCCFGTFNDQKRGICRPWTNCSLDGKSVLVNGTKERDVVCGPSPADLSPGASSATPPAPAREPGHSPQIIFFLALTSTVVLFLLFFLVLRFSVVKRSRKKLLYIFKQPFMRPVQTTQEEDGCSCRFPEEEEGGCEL

Full-length Human OX40 = molecular target: T3, Full-length Human OX40 (human, UniProt P43489 29-277); assay: flow cytometry, CHO cells expressing human OX40
T3 construct: also called OXF001; human OX40/CHO
T3 sequence: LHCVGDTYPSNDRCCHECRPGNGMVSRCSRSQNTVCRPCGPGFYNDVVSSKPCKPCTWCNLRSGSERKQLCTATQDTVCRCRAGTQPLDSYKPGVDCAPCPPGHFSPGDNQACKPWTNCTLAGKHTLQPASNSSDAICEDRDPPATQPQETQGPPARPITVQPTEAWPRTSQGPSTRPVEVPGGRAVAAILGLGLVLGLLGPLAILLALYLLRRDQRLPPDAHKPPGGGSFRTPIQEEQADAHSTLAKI

Full-length Human 4-1BB = molecular target: T4, Full-length Human 4-1BB (human, UniProt Q07011 24-255); assay: flow cytometry, Jurkat cells expressing human 4-1BB
T4 construct: also called FOB005; CD137

[2] = molecular target: T5, Fc gamma receptor RIIA H167 (human, UniProt P12318 36-218); assay: SPR, construct immobilized, receptor injected at 2 uM
T5 construct: soluble SPR analyte
T5 sequence (looked up): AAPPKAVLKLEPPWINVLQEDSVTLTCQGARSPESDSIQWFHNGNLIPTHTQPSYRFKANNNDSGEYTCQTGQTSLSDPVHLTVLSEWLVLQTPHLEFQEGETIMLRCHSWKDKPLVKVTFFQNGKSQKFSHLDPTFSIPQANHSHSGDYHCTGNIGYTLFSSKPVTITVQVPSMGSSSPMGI

[3] = molecular target: T6, Fc gamma receptor RIIA R167 (human, UniProt P12318 36-218); assay: as above
T6 construct: soluble SPR analyte
T6 sequence (looked up): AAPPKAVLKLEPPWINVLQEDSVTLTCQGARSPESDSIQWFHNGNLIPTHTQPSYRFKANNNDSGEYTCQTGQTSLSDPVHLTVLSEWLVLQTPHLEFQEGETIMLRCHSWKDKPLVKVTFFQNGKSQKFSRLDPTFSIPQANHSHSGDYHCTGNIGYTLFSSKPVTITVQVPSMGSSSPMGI

Full-length Cyno OX40 = molecular target: T7, Full-length Cyno OX40 (cynomolgus monkey, UniProt P43489 29-277 (human entry)); assay: flow cytometry on CHOK1SV cells transfected with cynomolgus OX40, goat anti-human Fc secondary antibody, MFI (Mean)
T7 construct: on CHO-K1SV cells; also called OXF004; cynomolgus OX40
T7 chain: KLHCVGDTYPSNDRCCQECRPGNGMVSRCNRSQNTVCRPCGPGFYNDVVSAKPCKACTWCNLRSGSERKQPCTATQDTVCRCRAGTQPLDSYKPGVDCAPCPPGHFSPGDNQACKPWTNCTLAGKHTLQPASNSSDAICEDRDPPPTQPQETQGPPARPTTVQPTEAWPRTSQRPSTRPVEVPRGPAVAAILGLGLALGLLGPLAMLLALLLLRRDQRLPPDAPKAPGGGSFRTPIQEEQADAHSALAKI
Method: (§1) Serial dilutions of ADAPTIR™ constructs were incubated with transfected target cells and subsequently labelled with a fluorescently-conjugated goat-a-human Fc secondary antibody. […] (See Example 25.)

Full-length Cyno 4-1BB [4] = molecular target: T2, Full-length Cyno 4-1BB; assay: flow cytometry on Jurkat cells transfected with cynomolgus 4-1BB, goat anti-human Fc secondary antibody, MFI (Mean)
Method: as §1

T1 sequence (P12314 16-288 limits assumed): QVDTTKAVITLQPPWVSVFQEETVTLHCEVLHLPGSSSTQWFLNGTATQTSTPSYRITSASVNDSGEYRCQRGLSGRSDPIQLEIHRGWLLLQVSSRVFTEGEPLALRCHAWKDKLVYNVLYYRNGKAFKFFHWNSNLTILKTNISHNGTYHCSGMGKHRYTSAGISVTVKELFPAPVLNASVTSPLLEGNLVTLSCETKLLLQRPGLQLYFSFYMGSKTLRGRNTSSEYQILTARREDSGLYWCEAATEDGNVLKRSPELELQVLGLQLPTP

B1: FXX01066 (bispecific antibody)
chain: EVQLVQSGAEVKKPGASVKVSCKASGYTFTSYWMNWVRQAPGQGLEWMGNIYPSGGSTNYAQKFQGRVTMTVDTSTSTVYMELSSLRSEDTAVYYCASFSDGYYAYAMDYWGQGTLVTVSSGGGGSGGGGSGGGGSGGGGSEIVMTQSPATLSLSPGERATLSCRASQSVSSYLNWYQQKPGQAPRLLIYYASRRHTGIPARFSGSGSGTDFTLTISSLQPEDFAVYYCQQGYNLPYTFGQGTKVEIKEPKSSDKTHTCPPCPAPPAAAPSVFLFPPKPKDTLMISRTPEVTCVVVDVSHEDPEVKFNWYVDGVEVHNAKTKPREEQYNSTYRVVSVLTVLHQDWLNGKEYKCAVSNKALPAPIEKTISKAKGQPREPQVYTLPPSRDELTKNQVSLTCLVKGFYPSDIAVEWESNGQPENNYKTTPPVLDSDGSFFLYSKLTVDKSRWQQGNVFSCSVMHEALHNHYTQKSLSLSPGGGGSPSSYVLTQPPSVSVAPGQTARITCGGNNIGSKSVNWFQQKPGQAPVLVVYDDSGRPSGIPERFSGSTSGNTATLTISRVEAGDEADYYCQVWDSSSDHVVFGGGTKLTVLGGGGSGGGGSGGGGSGGGGSQVQLVESGGGVVQPGRSLRLSCAASGFTLSYYGMHWVRQAPGKGLEWVAAISHDGSDKYYADSVKGRFTISRDNSKNTLYLQMNSLRAEDTAVYYCSNDQFDPWGQGTLVTVSSR
notes: ADAPTIR scFv-Fc-scFv, anti-4-1BB (VH-VL) N-terminal, anti-OX40 C-terminal, PAA (del) Fc; also called FX01066
- Max RU value during association (Fc gamma receptor RI): 0 RU
- EC50 (read off the curve) (Full-length Cyno 4-1BB [1]): ~300 pM
- EC50 (Full-length Human OX40): 290 pM
- max MFI (Full-length Human OX40): 10400 MFI
- EC50 (Full-length Human 4-1BB): 230 pM
- max MFI (Full-length Human 4-1BB): 4710 MFI
- Max RU value during association [2]: 14 RU
- Max RU value during association [3]: 92 RU
- EC50 (read off the curve) (Full-length Cyno OX40): ~2000 pM
- EC50 (read off the curve) (Full-length Cyno 4-1BB [4]): ~400 pM

B2: FXX01101 (bispecific antibody)
chain: EVQLVQSGAEVKKPGASVKVSCKASGYTFTSYWMNWVRQAPGQGLEWMGNIYPSGGSTNYAQKFQGRVTMTVDTSTSTVYMELSSLRSEDTAVYYCASFSDGYYAYAMDYWGQGTLVTVSSGGGGSGGGGSGGGGSGGGGSEIVMTQSPATLSLSPGERATLSCRASQSVSSYLNWYQQKPGQAPRLLIYYASRRHTGIPARFSGSGSGTDFTLTISSLQPEDFAVYYCQQGYNLPYTFGQGTKVEIKEPKSSDKTHTCPPCPAPPAAAPSVFLFPPKPKDTLMISRTPEVTCVVVDVSHEDPEVKFNWYVDGVEVHNAKTKPREEQYNSTYRVVSVLTVLHQDWLNGKEYKCAVSNKALPAPIEKTISKAKGQPREPQVYTLPPSRDELTKNQVSLTCLVKGFYPSDIAVEWESNGQPENNYKTTPPVLDSDGSFFLYSKLTVDKSRWQQGNVFSCSVMHEALHNHYTQKSLSLSPGGGGSPSSYVLTQPPSVSVAPGQTARITCGGNNIGSKSVNWFQQKPGQAPVLVVYDDSGRPSGIPERFSGSTSGNTATLTISRVEAGDEADYYCQVWDSSSDHVVFGGGTKLTVLGGGGSGGGGSGGGGSGGGGSQVQLVESGGGVVQPGRSLRLSCAASGFTLSYYGMHWVRQAPGKGLEWVAAISHDGSDKYYADSVKGRFTISRDNSKNRLYLQMNSLRAEDTAVYYCSNDQFDPWGQGTLVTVSSR
notes: ADAPTIR anti-4-1BB (HL) x anti-OX40 with T86R; PAA (del) Fc; also called FX01101
- Max RU value during association (Fc gamma receptor RI): 0 RU
- EC50 (read off the curve) (Full-length Cyno 4-1BB [1]): ~300 pM
- EC50 (Full-length Human OX40): 310 pM
- max MFI (Full-length Human OX40): 10500 MFI
- EC50 (Full-length Human 4-1BB): 250 pM
- max MFI (Full-length Human 4-1BB): 4850 MFI
- Max RU value during association [2]: 14 RU
- Max RU value during association [3]: 94 RU
- EC50 (read off the curve) (Full-length Cyno OX40): 1000 to 2000 pM
- EC50 (read off the curve) (Full-length Cyno 4-1BB [4]): ~300 pM
